Results from US20220098240A1 (FUJIFILM, published 2022).
Bridge positions count the residues as written; N and C are the ends. Square brackets hold non-standard residues; d marks the D form. Ends that are not written are not given here. COCH2 = acetyl group that carries the bridge; Pen = CC(C)(S)[C@H](N)C(=O)O; hCys = N[C@@H](CCS)C(=O)O; Orn = NCCC[C@H](N)C(=O)O; Dab = NCC[C@H](N)C(=O)O; Dap = NC[C@H](N)C(=O)O

B1: Cyclic peptide 1 (peptide)
peptide: {CH2CO}-I[Dap](COCH2)RGD[hCys]F[hCys]KKK
modifications: thioether 2-6, N-8
B2: Cyclic peptide 21 (peptide)
peptide: K[Dap]RGD[hCys]F[hCys]KKK
modifications: bridge N-8, 2-6; not fully specified (N-terminus, bridges); printed as K RGD- -F-(Hcy)-KKK
B3: Cyclic peptide 31 (peptide)
peptide: {CH2CO}-I[hCys]RGDK(COCH2)P[hCys]KKK
modifications: thioether 2-6, N-8
B4: Cyclic peptide 32 (peptide)
peptide: {CH2CO}-I[hCys]RGDK(COCH2)Y[hCys]KKK
modifications: thioether 2-6, N-8
B5: Cyclic peptide 11 (peptide)
peptide: {CH2CO}-I[hCys]RGDK(COCH2)F[hCys]KKK
modifications: thioether 2-6, N-8
B6: Cyclic peptide 22 (peptide)
peptide: {CH2CO}-I[hCys]RGDK(COCH2)F[hCys]K
modifications: thioether 2-6, N-8
B7: Cyclic peptide 23 (peptide)
peptide: {CH2CO}-I[Orn](COCH2)RGD[hCys]F[Pen]KKK
modifications: thioether 2-6, N-8
B8: Cyclic peptide 24 (peptide)
peptide: {CH2CO}-E[Orn]RGD[hCys]F[Pen]KKK
modifications: thioether N-8; bridge 2-6; not fully specified (residue 2, bridges); printed as E RGD- -F-(Pen)-KKK
B9: Cyclic peptide 25 (peptide)
peptide: {CH2CO}-Y[hCys]RGDK(COCH2)F[hCys]KKK
modifications: thioether 2-6, N-8
B10: Cyclic peptide 26 (peptide)
peptide: XXRGDXFXKKK
modifications: not fully specified; thioether: L1 alpha-NH2 through acetyl to Hcy8; thioether: Hcy2 to K(acetyl)6
B11: Cyclic peptide 27 (peptide)
peptide: {CH2CO}-T[hCys]RGDK(COCH2)F[hCys]KKK
modifications: thioether 2-6, N-8
B12: Cyclic peptide 28 (peptide)
peptide: {CH2CO}-V[hCys]RGDK(COCH2)F[hCys]KKK
modifications: thioether 2-6, N-8
B13: Cyclic peptide 29 (peptide)
peptide: {CH2CO}-D[hCys]RGDK(COCH2)F[hCys]KKK
modifications: thioether 2-6, N-8
B14: Cyclic peptide 3 (peptide)
peptide: {CH2CO}-I[Orn](COCH2)RGD[hCys]F[hCys]KKK
modifications: thioether 2-6, N-8
B15: Cyclic peptide 30 (peptide)
peptide: {CH2CO}-E[hCys]RGDK(COCH2)F[hCys]KKK
modifications: thioether 2-6, N-8
B16: Cyclic peptide 35 (peptide)
peptide: {CH2CO}-I[hCys]RGDK(COCH2)F[hCys]AKKK
modifications: thioether 2-6, N-8
B17: Cyclic peptide 38 (peptide)
peptide: {CH2CO}-V[Orn](COCH2)RGD[hCys]F[hCys]KKK
modifications: thioether 2-6, N-8
B18: Cyclic peptide 39 (peptide)
peptide: {CH2CO}-D[Orn]RGD[hCys]F[hCys]KKK
modifications: thioether N-8; bridge 2-6; not fully specified (residue 2, bridges)
B19: Cyclic peptide 40 (peptide)
peptide: {CH2CO}-E[Orn](COCH2)RGD[hCys]F[hCys]KKK
modifications: thioether 2-6, N-8
B20: Cyclic peptide 42 (peptide)
peptide: {CH2CO}-D[hCys]RGD[Orn](COCH2)F[hCys]KKK
modifications: thioether 2-6, N-8
B21: Cyclic peptide 43 (peptide)
peptide: {CH2CO}-E[hCys]RGD[Orn](COCH2)F[hCys]KKK
modifications: thioether 2-6, N-8
B22: Cyclic peptide 44 (peptide)
peptide: {CH2CO}-V[hCys]RGDK(COCH2)F[hCys]AKKK
modifications: thioether 2-6, N-8
B23: Cyclic peptide 45 (peptide)
peptide: {CH2CO}-D[hCys]RGDK(COCH2)F[hCys]AKKK
modifications: thioether 2-6, N-8
B24: Cyclic peptide 46 (peptide)
peptide: {CH2CO}-E[hCys]RGDK(COCH2)F[hCys]AKKK
modifications: thioether 2-6, N-8
B25: Cyclic peptide 47 (peptide)
peptide: {CH2CO}-E[hCys]RGD[Orn](COCH2)F[hCys]AKKK
modifications: thioether 2-6, N-8
B26: Cyclic peptide 12 (peptide)
peptide: XCRGDXFCKKK
modifications: not fully specified; thioether: I1 alpha-NH2 through acetyl to C8; thioether: C2 to K(acetyl)6
notes: bicyclic; all residues L; immobilised on CM5 chip through amino groups
B27: Cyclic peptide 14 (peptide)
peptide: {CH2CO}-I[Dap](COCH2)RGDCF[hCys]KKK
modifications: thioether 2-6 via Ac; thioether N-8; not fully specified
notes: as for B26
B28: Cyclic peptide 15 (peptide)
peptide: {CH2CO}-I[Orn](COCH2)RGD[hCys]FCKKK
modifications: thioether 2-6 via Ac; thioether N-8; not fully specified
notes: as for B26
B29: Cyclic peptide 17 (peptide)
peptide: {CH2CO}-I[hCys]RGDK(COCH2)FCKKK
modifications: thioether 2-6 via Ac; thioether N-8; not fully specified
notes: as for B26
B30: Cyclic peptide 18 (peptide)
peptide: {CH2CO}-ICRGDK(COCH2)F[hCys]KKK
modifications: thioether 2-6 via Ac; thioether N-8; not fully specified
notes: as for B26
B31: Cyclic peptide 20 (peptide)
peptide: {CH2CO}-ICRGD[Dab](COCH2)F[hCys]KKK
modifications: thioether 2-6 via Ac; thioether N-8; not fully specified
notes: as for B26
B32: Cyclic peptide 48 (peptide)
peptide: {CH2CO}-KCRGDCFCKKK
modifications: disulfide 2-6; thioether N-8
notes: bicyclic comparative peptide; all residues L; immobilised on CM5 chip through amino groups
B33: Cyclic peptide 49 (peptide)
peptide: ACDCRGDCFCGKKK
modifications: disulfide 2-10, 4-8
notes: as for B32
B34: Cyclic peptide 8 (peptide)
peptide: {CH2CO}-ICRGD[Dab](COCH2)FCKKK
modifications: thioether 2-6 via Ac; thioether N-8
notes: as for B26

What follows are binders tested against T1, human integrin αvβ5 (human, UniProt P06756 31-992; P18084 24-719) (assay: SPR, Biacore 3000, peptide immobilised on CM5 chip, integrin 30-1000 nM flowed; grade B = dissociation constant more than 50 nM and 100 nM or less).
T1 construct: soluble analyte in SPR at 30, 100, 300 and 1,000 nM in HEPES buffer with 5 mM magnesium chloride; heterodimer of an alpha and a beta chain
T1 sequence (P06756 31-992, chain 1 of 2): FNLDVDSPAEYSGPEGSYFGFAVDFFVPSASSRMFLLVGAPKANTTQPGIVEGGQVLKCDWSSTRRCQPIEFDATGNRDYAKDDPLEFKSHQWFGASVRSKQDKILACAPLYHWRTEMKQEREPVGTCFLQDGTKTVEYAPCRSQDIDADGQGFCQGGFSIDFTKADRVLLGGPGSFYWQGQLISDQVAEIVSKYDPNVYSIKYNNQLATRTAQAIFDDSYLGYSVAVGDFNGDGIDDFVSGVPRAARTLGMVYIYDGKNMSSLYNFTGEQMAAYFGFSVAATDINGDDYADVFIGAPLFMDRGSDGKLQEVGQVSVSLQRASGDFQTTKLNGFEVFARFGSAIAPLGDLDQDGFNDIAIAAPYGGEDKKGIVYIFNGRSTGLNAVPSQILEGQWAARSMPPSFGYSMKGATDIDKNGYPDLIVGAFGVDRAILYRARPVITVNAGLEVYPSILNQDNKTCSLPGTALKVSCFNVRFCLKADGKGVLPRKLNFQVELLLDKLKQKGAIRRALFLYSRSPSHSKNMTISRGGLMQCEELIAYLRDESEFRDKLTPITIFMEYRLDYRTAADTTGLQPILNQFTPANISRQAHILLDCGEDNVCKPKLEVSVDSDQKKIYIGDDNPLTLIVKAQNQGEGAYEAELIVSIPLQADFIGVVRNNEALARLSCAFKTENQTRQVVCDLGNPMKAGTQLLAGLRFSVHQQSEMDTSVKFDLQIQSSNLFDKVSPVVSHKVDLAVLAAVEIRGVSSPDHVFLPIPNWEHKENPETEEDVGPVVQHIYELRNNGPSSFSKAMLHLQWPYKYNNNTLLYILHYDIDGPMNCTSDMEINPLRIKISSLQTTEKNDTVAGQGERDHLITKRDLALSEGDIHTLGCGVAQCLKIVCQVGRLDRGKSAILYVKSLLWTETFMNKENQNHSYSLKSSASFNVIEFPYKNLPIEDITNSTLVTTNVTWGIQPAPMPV
T1 sequence (P18084 24-719, chain 2 of 2): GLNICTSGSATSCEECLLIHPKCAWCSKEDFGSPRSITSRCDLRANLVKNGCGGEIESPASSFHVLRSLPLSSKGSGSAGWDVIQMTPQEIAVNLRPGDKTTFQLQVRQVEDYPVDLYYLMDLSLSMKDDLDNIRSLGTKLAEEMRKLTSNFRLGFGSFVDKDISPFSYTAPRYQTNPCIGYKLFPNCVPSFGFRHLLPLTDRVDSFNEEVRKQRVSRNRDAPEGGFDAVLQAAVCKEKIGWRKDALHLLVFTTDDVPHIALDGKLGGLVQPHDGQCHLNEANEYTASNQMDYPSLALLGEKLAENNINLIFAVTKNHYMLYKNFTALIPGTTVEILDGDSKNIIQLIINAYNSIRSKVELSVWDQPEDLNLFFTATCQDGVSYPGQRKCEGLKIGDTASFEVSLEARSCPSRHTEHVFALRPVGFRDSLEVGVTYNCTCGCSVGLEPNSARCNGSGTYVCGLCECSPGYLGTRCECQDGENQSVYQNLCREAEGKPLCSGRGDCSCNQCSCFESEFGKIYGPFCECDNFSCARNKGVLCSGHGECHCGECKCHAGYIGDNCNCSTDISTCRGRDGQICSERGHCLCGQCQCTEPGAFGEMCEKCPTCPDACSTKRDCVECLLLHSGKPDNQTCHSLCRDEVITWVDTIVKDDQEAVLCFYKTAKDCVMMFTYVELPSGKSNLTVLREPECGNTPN
Method: (§1) However, only for the cyclic peptide 22, in which the number of lysine residues having an amino group as the immobilizing functional group was 1, the sample solution to be supplied to the sensor chip was set to 5,000 μL instead of 300 μL. Similarly, 70 μL of the mixed aqueous solution of 0.2 M EDC and 0.04 M NHS was added to another flow channel of the same sensor chip without immobilizing the sample, and then blocking treatment and washing treatment were carried out. Hereinafter, the obtained immobilization-treated sensor chip is referred to as an “immobilization-treated sensor chip A”.
(§2) After adding human integrin αvβ5 for 10 minutes at 25° C., which was diluted to 30 nM using a HEPES buffer solution to which magnesium chloride was added to 5 mM, in each flow channel of the immobilization-treated sensor chip A prepared in (1) above, the same HEPES buffer solution (containing 5 mM magnesium chloride) was allowed to flow as a running buffer for 30 minutes, and measurement was carried out with Biacore 3000.
(§3) Then, a regeneration treatment of removing human integrin αvβ5 was carried out by allowing a 0.5 M EDTA aqueous solution to flow through each flow channel for 10 minutes. Further, the above-described measurement process consisting of adding integrin for 10 minutes, allowing a running buffer to flow for 30 minutes, carrying out measurement with Biacore 3000, and carrying out regeneration treatment with 0.5 M EDTA aqueous solution was carried out in the same manner for 100 nM human integrin αvβ5, 300 nM human integrin αvβ5, and 1,000 nM human integrin αvβ5. Dissociation constant between the cyclic peptide and human integrin αvβ5 was calculated from the difference between the value measured by Biacore 3000 in the flow channel immobilized with the cyclic peptide and the value measured by Biacore 3000 in the flow channel unimmobilized with the cyclic peptide, in a case where each concentration of human integrin αvβ5 was allowed to flow, and the integrin binding property was evaluated according to the following evaluation standards. It is preferable that the evaluation result satisfies the evaluation standard A, B, or C.
In the case of B1, the dissociation constant (KD) is reported as 50 to 100 nM. B2 gave a dissociation constant (KD) of 50 to 100 nM. With B3 the dissociation constant was 50 to 100 nM. With B4 the dissociation constant was 50 to 100 nM.

These binders were tested against T1, human integrin αvβ5 (assay: SPR, Biacore 3000, peptide immobilised on CM5 chip, integrin 30-1000 nM flowed; grade A = dissociation constant 50 nM or less).
Method: as §1, §2, §3
Binder B5 has a dissociation constant (KD) of under 50 nM. B6 gave a dissociation constant (KD) of under 50 nM. B7 was tested, and the dissociation constant (KD) was under 50 nM. B8 showed a dissociation constant (KD) of under 50 nM. B9 gave a dissociation constant of under 50 nM. Work on B10 yielded a dissociation constant of under 50 nM. In the case of B11, the dissociation constant is reported as under 50 nM. B12 was tested, and the dissociation constant was under 50 nM. In the case of B13, the dissociation constant is reported as under 50 nM. B14 was tested, and the dissociation constant (KD) was under 50 nM. In the case of B15, the dissociation constant is reported as under 50 nM. With B16 the dissociation constant was under 50 nM. Binder B17 has a dissociation constant of under 50 nM. Work on B18 yielded a dissociation constant of under 50 nM. Binder B19 has a dissociation constant of under 50 nM. B20 gave a dissociation constant of under 50 nM. B21 was tested, and the dissociation constant was under 50 nM. With B22 the dissociation constant was under 50 nM. For B23, the dissociation constant was under 50 nM. B24 gave a dissociation constant of under 50 nM. For B25, the dissociation constant was under 50 nM. With B26 the “dissociation constant (KD)” value was at most 50 nM. B27 was tested, and the “dissociation constant (KD)” value was at most 50 nM. With B28 the “dissociation constant (KD)” value was at most 50 nM. For B29, the “dissociation constant (KD)” value was at most 50 nM. B30 was tested, and the “dissociation constant (KD)” value was at most 50 nM. In the case of B31, the “dissociation constant (KD)” value is reported as at most 50 nM. For B32, the dissociation constant was at most 50 nM. In the case of B33, the dissociation constant is reported as at most 50 nM. In the case of B34, the “dissociation constant (KD)” value is reported as at most 50 nM.
